Experiment: yeast display, Sf9 membrane polyspecificity reagent, FACS + sequencing; frameworks hold sequencing errors
In short: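 Sorting gates, low and high (top ~1%), were placed on anti-HA fluorescence to track expression and on streptavidin fluorescence to track reagent binding. A clone's polyreactivity label is taken from the gate it came out of. The reagent was 10% biotinylated, detergent-solubilized Sf9 membrane, applied for 1 hour at 4 °C to galactose-induced yeast display cells.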

## QVQLVESGGGLVQAGGSLRLSCAATGRIYVTNAMGWYRQAPGKERELVAAITESGGSTYYADTVKGRFTISRDNAKNTVYLQMNSLKPEDTAVYYCAADYLNGEEDYWGQGTQVTVSS
  polyreactivity (PSR sort gate): low polyreactivity

## QVQLVESGGGLVQAGGSLRLSCAASGLTFRYYTMGWYRQAPGKERELVAAISRTVGSTYYADSVKGRFTISRDNAKNTVYLQMNSLKPEDTAVYYCAAKYEQYSPAVIYYYWGQGTQVTVSS
  polyreactivity (PSR sort gate): high polyreactivity

## QVQLVVSGGGLVQAGGSLRLSCAASGSIFAQNVMGWYRQAPGKERELVAAISYCGGTTYYADSVKGRFTISRDNAMNSVYLQMNSLKPEDTAVYYCAAEFGVYEYDYWGQGTQVTVSS
  polyreactivity (PSR sort gate): low polyreactivity

## QVQIVESGGGLVQAGGSLRLICAASGRIFRYYVMGWYRQAPGKERELVATITSGGSTNYADSVKGRFTISRDNAKNTVYLQMNSLKPEDTAVYYCNRDRYPYYYAYNFWGQGTQVTVSS
  polyreactivity (PSR sort gate): low polyreactivity

## QVQLVESGGGLVQAGGSLRLSCAASGRTFRPNAMGWYRQAPGKERELVASITRRGGTTYYADSVKGRFTNSRDNAKNTVYLQMNSLKPEDTAFYYCIGPRGYSSTRNGYWGQGTQVTVSS
  polyreactivity (PSR sort gate): high polyreactivity

## QVQLVESGGGLVQAGGSLRLSCAASGITFGRNTMGWYRQAPGKERELVAAIDSGGNTYADSVKGRFTISRDNAKNTVYLQMNSLKPEDTAVYYCDVDGGEFSSYGYWGQGTLVTVSS
  polyreactivity (PSR sort gate): low polyreactivity

## QVQLVESGGGLVQAGGSLRLSCAASGSIFDIYGMGWYRQAPGKESELFASISGGAGSTNYADSVKGRFTISRDNAKNTVYLQMNSLKPEDTAVYYCAAEVYVPDYFQHKFDVEYEYWGQGTQVTVSS
  polyreactivity (PSR sort gate): low polyreactivity

## QVQLVESGGGIVQAGGSLRLRCAATASIYVHYAMGWYIQAPGKETDLVAAIRWRGGSTNYADSVKGRFTISRDNAKNTVDLQMNSLKQEDTAVSYCNARHPASGDLYRMDYWGPGTQVTVSS
  polyreactivity (PSR sort gate): low polyreactivity

## QVQLVESGGGLVQAAGSLRLSCAASGSTFGYNTMGWYRQAPGKERELVAGITYSGGRTYYADSVKGRFTISRDNAKNTVYLQMNSLKPADTAVYYCAALYGRGGYRNQPKSTTGMDYWGQGTQVTVSS
  polyreactivity (PSR sort gate): high polyreactivity

## QVQLVESGGGLVQAGGSLRLSCAASGRIFWGNAMGWYRQAPGKEREFVAGITGIGGRTYYADSVKGRFTISRDNAKNTVYLQMNSLKPEDTAVYYCARTWAVSYGYAMDYWGQGTQVTVSS
  polyreactivity (PSR sort gate): low polyreactivity

## QVQLVESGGGLVQAGGSLRLSCAASGRTFGDYDMGWYRQAPGKERELVAAITSDGTTYYADSVKGRFTISRDNAKNTVYLQMNSLKPEDTAVYYCAADYWYVSWYDYWGQGTQVTVSS
  polyreactivity (PSR sort gate): low polyreactivity

## QVQLVESGGGLDQAGGSLRLSCAASGFAFSYYAMGWYRQAPGKEREFVASIDWSGGSTYYADSVKGRFTISRDNAKNTVYLQMNSLKPEDTAVYYCAAELDYFPGYDYWGQGTQVTVSS
  polyreactivity (PSR sort gate): low polyreactivity

## QVQLVESGGGLVQAGGRLRLSCAGSGSTSYGYAMGWYRQAPGKERELVAAITSGGRTYYADSVKGRFTISRDNAKNTVYFQMNSLKPEDTAVYYCAAVRALRKVRDYYYWGQGTQVTVSS
  polyreactivity (PSR sort gate): high polyreactivity

## QVQLVESGGGLDQAGGSLRLSCAASGRIFIDNTMAWYRQAPGKERELVAAISWSGGSTYYADSVKGRFTISRDNAKNTVYLQMNSLKPEDTAVYYCAARSLRSNGRTWAVTYDYWGQGTQVTVSS
  polyreactivity (PSR sort gate): low polyreactivity

## QVQLVESGGALVHAGGSLRLTCAASGYTFRYYAMRWYRQAPGKERELVARINRSGGSTYYADSVKGRFTISRDNAKNTVYLQMNSLKPEDTAVYYCNRDYGWHYSYEYWGQGTQVTVSS
  polyreactivity (PSR sort gate): high polyreactivity

## QVQLVESGGGLVQAGGSLRLSCAATGNIFRYNAMGWYRQAPGKERELFAAISSVGTTNYADSVKGRFTISRDNEKNTVYLQMNSLKPEDTAVYYVAAVAYQGGYLNDNWGQGTQVTLSS
  polyreactivity (PSR sort gate): low polyreactivity

## QVQLVESGGGLVQAGGSLRLSCAASGRTFRYNAMGWYRQAPGKERELVAAITWSGGSTYYADSVKGRFTISRDNAKNTVYLQMNSLKPEDTAVYYCAKGRRRSHPYDYWGQGTQVTVSS
  polyreactivity (PSR sort gate): high polyreactivity

## QVQLVESGGGLVQAGGSLRLSCAASGSTFRGNAMGWYRQAPGKERELVASITGGGSTNYADSVKGRFTISRDNAKNTVYLQMNSLKPEDTAVYYCAADWGADFYWGQGTQVTVSS
  polyreactivity (PSR sort gate): low polyreactivity

## QVQLVESGGGLVQAGGSLRLSCAASGSIFIAYGMGWYRQEPGKERELVAAITVSGGNTYYADSVKGRFTISRDNAKNTVYLQMKSLKPEDTAVYYCAADYWYYYGKGLYDYWGQGTQVTVSS
  polyreactivity (PSR sort gate): low polyreactivity

## QVQLVESGGGLVQAGGSLRLSCAASGRISIWYDMGWYRQAPGKERELVASITSGGSTYADSVKGRFTISRDNAKNTVYLQMNSLKPEDTAVYYCAADEAPYGTSEQRHSRFSHWGQGTQVTVSS
  polyreactivity (PSR sort gate): low polyreactivity

## QVQLVESGGGLVQAGGSLRLSCAASGRILFSYGAMGWYRQAPGKERELVAAISYSGGSTYYADSVKGRFTISRDNAKNTVYLQMNSLKPEDTAVYYCAASSIVYRHYYWGQGTQVTVSS
  polyreactivity (PSR sort gate): high polyreactivity

## QVQLVESGGGLVQAGGSLRLSCAASGYTFDPYDMGRYRQAPGKERELVASISWSGGDTYYADSVKGRFTISRDNAKNTVYLQMNSLKPEDTAVYYCAADRYIPRSIIMDYWGQGTQVTVSS
  polyreactivity (PSR sort gate): low polyreactivity

## QVQLVESGGGLVQAGGSLRLSCAASGLTFSHYAMGWYRQAPGKERELVAGISSRGGNTYYADSVKGRFTISRDNAKNTVYLQMNSLKPEDTAVYYCATPRSRTDGYDYWGQGTQVTVSS
  polyreactivity (PSR sort gate): high polyreactivity

## QVQLVESGGGLVQAGGSLRLSCAASGSIIPRNAMGWYRQAPGKEMELVAAIRKSGGSTYYADSVKGRFTFCRDIAKNTVYLQMNSLKPEDTAVYYCAKPYYVPSWLSPIYNYWGQGTQVTESS
  polyreactivity (PSR sort gate): low polyreactivity

## QGQLVESGVGLVQAGGSLSLSCAASGSILNNYAMAWYIQAPGKERELVAAISSSGGTNYADSVKGRFTISRDNAKNTVYLQMNSLKPEDTAVYYCNADVLDGGYDYWGQGTQVTVSS
  polyreactivity (PSR sort gate): low polyreactivity

## QVQLEESGGGLVQAGGSLRLSCAASGLTFDPYAMGWSRQAPGKERELVAVITSRTGSTYYADSVKGRFTISRDNAKNTVYLQMNSLKPEDTAVYYCAAEIYYYGMYGYDYWGQGTQVTVSS
  polyreactivity (PSR sort gate): high polyreactivity

## QVQLVVSGGGLVQAGGSLRLSCAASGRTFRSYAMGWYRQEPGKERELVAAISDGGSTNYADSVKGRFTISRDNAKNTVYLQMNSLKPEDTAVYYCAAEFFFAVFRFYYWGQGTQVTVSS
  polyreactivity (PSR sort gate): low polyreactivity

## QVQLVESGGGLVQAGGSLRLSCAASGYTFRYNALGWYRQAPGKERELVAAISYSRGSTYYADSVKGRFTISRDYAKYTVYLLMNSLKPEDTAVYYCAAQYLFSGHDYWGQGTQVTVSS
  polyreactivity (PSR sort gate): low polyreactivity

## QVQLVESGGGLVQAGGSLRLSCAASGIIFGENAMGWYRQAPGKERELVAAITESGGSTYYADSVKGRFTISRDNAKNTVYLQMNSLKPEDTAVYYCNALPFRYGKRRGYWGQGTQVTVSS
  polyreactivity (PSR sort gate): low polyreactivity

## QVKLVESRGGLVQAGGSLRLSCAASGFTFFLYTMGWYRQAPGKERELVATITSAGTTNYADSVKGRFTISRDNAKNTVYLQMNSLIPEDTAVYYCNADRWEYDYWGQGTQVTVSS
  polyreactivity (PSR sort gate): low polyreactivity

## QVQLVESGGGLDQARGSLRLSCAASGRIFYTYAMGWYRRAPGKERELVAAISRSGTSTYYADSVKGRFTISRDNAKNTVYLQMNSLKPEDTAVYYCAAAKWYSVAYVGTFKYDYWGQGTQVTVSS
  polyreactivity (PSR sort gate): high polyreactivity

## QVHLVESGGGLVQAGGSLRLSCAASGYIFRRYAMGWYRQAPGKERELVAAISFSGGSTYYADSVKGRFTISRDNAKNSVYIQMNSLKPDDTAVYYCAGLSLLRYDYWGQGTQVTVSS
  polyreactivity (PSR sort gate): high polyreactivity

## QVQLVESGGGLVQAGGSLRLSCAASGRTFYNYAMGWYRQAPGKERELVATITGRGGRTFYAHSVKGRFTISRDNAKNTVYLQMNSLTPEDTAVYYCAAYGSASPYYTLYVEHDYWGQGTQVTVSS
  polyreactivity (PSR sort gate): low polyreactivity

## QVQLVESGGGLVQAGGSLRLSCAASGSIFKAHTMGWYRQAPGKERELVAAISGSGGRTRYADSVKGRFTISRDNAKITVYLQMNSLKPDVTAVYYCAASDRGGYYYWGQGTQVTVSS
  polyreactivity (PSR sort gate): high polyreactivity

## QVQLVESGGGLVQAGGSLRLSCAASGLTFSAYAMGWYRQAPGKERELVAAITSSGGSTYADSVKGRFTISRDNAKNTVYLQMNSLKPEDTAVYYCNADLGDYGWYSSYDYWGQGTQVTVSS
  polyreactivity (PSR sort gate): low polyreactivity

## QVQLEESGGGLVQAGGSLRLSWAASGSTFVPNAMGWYRQAPGKERELVAAISYSGGTTYYADSVKGRFTISRDNAKNTVYLQMNSLKPEDTAVYYCAARSKGAAAILDDYWGQGTQVTVSS
  polyreactivity (PSR sort gate): low polyreactivity

## QVQLVESGGGLVQAGGSLRLSCAASGSTFARYAMGWYRQAPGKERELFAVITWTGGSTYYADSVKGRFTISRDNAKNTVYLQMNSLKPEDTAVYYCAADFRYYVTALKYDYWGQGTQVTVSS
  polyreactivity (PSR sort gate): low polyreactivity

## QVQLVESGGGLVQAGGSLRLRCAASGFTLRLYTMAWYRQAPGQERELVAAINKRGGSTYYADSVKGRFTISRDNAKNSVYLQMISLKPEDTAVYYCANVPGYKAYEYDYWGQGTQVTVSS
  polyreactivity (PSR sort gate): high polyreactivity

## QVQLVESGGGLVQAGGSLRLSCAASGSIFSGYTMGWYRQAPGQERELVAAISYRGGRTYYADSVKGRFTISRDNAKNTVYLQMNSLKPEDTAVYYCNAAPYITRRHDYWGQGTQVTVSS
  polyreactivity (PSR sort gate): high polyreactivity

## QVQLVESGGRLVQAGGSLRLSCAASGRTFPYNAMGWSRQAPRKERELVAAITWSGGSTYYADSVKGRFTISRDNAKNTVYLQMNSLKPEDTAVYYCAADEIYGYDYWGQGTQVTVSS
  polyreactivity (PSR sort gate): high polyreactivity

## QVQLVESGGGLVQAGGSLRLSCAASGIIFVRYVMGWYRQAPGKERELVAAINWSGGSTYYAYSVKGRFTISRDNANNTVYLQMNSLKPEDTAVYYCAAGSARDDDYWGQGTQVPVSS
  polyreactivity (PSR sort gate): high polyreactivity

## QVQLVESGGGLVQAGGSLRLSCAASGYTFRSNTMGWYRQAPGKERELVAAISGRGSSTYYADSVKGRFTISRDNAKNTVYLQMNSLKPEDTAVYYWNAPYNRATYNYWGQGTQVNVSS
  polyreactivity (PSR sort gate): high polyreactivity

## QVQLVESGGGLVQAGGSLRLICAASGLTFVTYAMGWYRQAPGKERELVAAITWSVGGTTYYADSVKGRFTISRDNAKNTVYLQMNSLKPEDTAVYYCAAESYSYYYDYYYWGQGTQVTVSS
  polyreactivity (PSR sort gate): high polyreactivity

Source: the nanobody polyreactivity screen of Harvey et al. (2022)
